From patent publication US20250109190A1 (BYOMASS, published 2025)
Changes are numbered by the printed parent chain.

Experiments:
Assay in all cases: BLI Octet; IgG, avid
GDF15 Fc = target: T1, GDF15 Fc (UniProt Q99988 197-308, limits assumed)
T1 construct: species not given; not shown: Fc part of the fusion
T1 sequence (looked up): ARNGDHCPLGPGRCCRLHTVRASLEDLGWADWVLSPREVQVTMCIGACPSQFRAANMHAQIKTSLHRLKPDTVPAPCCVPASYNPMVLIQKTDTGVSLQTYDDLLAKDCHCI

BMP10 = target: T2, BMP10 (UniProt O95393 317-424)
T2 sequence (looked up): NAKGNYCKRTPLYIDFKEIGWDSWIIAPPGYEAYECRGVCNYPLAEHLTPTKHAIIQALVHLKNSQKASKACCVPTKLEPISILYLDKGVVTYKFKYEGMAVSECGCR

human GDF10 = target: T3, human GDF10 (human, UniProt P55107 369-478)
T3 sequence (looked up): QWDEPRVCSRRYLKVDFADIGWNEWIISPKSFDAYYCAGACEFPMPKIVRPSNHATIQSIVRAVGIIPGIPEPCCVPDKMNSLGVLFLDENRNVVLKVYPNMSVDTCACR

human GDF11 = human GDF11 (human, UniProt O95390 299-407)
Sequence of human GDF11 (O95390 299-407 limits assumed): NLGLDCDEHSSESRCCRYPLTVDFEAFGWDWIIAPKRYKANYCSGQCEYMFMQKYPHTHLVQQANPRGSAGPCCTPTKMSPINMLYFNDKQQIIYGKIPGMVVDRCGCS

human GDF8 = human GDF8 (human, UniProt O14793 267-375)
human GDNF = target: T4, human GDNF (human, UniProt P39905 78-211, limits assumed)
T4 sequence (looked up): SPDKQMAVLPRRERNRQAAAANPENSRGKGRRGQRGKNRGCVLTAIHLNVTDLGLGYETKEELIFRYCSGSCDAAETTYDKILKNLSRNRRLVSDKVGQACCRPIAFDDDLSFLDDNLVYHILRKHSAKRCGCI

BMP9 = target: T5, BMP9 (UniProt Q9UK05 320-429)
T5 sequence (looked up): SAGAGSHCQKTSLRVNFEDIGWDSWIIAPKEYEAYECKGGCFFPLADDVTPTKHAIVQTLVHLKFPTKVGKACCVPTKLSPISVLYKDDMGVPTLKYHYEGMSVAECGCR

Activin B = target: T6, Activin B (UniProt P09529 293-407)
T6 sequence (looked up): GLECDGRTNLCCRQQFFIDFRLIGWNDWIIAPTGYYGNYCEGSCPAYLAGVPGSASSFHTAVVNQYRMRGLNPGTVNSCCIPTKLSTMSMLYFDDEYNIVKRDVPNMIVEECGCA

Measured: binding result

B1: Antibody M (Clone M), IgG (antibody, V domains shown)
VH: QLQLQESGPGLVKPSETLSLTCTVSGGSISSSDYYWGWIRQPPGKGLEWIGSIYYPANTYYNPSLKSRVTISVDTSKNQFSLKLSSVTAADTAVYYCARGYWNYGMDVWGQGTTVTVSS
VL: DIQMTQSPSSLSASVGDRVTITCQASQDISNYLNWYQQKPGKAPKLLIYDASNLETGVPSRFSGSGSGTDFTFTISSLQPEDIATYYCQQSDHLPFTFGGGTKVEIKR
notes: IgG
not listed: Activin B
no binding (tested: 100 nM): all other assays above

B2: Antibody N (Clone N), IgG (antibody, V domains shown)
VH: B1 VH with N58S
VL: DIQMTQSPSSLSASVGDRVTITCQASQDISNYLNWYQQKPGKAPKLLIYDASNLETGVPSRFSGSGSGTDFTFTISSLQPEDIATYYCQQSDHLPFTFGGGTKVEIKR
notes: IgG
not listed: Activin B
no binding (tested: 100 nM): all other assays above

B3: Antibody P (Clone P), IgG (antibody, V domains shown)
VH: QVQLVQSGAEVKKPGSSVKVSCKASGGTFDDYAISWVRQAPGQGLEWMGGIIPRFGIANYAQKFQGRVTITADESTSTAYMELSSLRSEDTAVYYCARPPSSGSDWGQGTLVTVSS
VL: DIQMTQSPSSVSASVGDRVTITCRASQGIDSWLAWYQQKPGKAPKLLIYAASSLQSGVPSRFSGSGSGTDFTLTISSLQPEDFATYYCQQVHSFPITFGGGTKVEIKR
notes: IgG
not listed: Activin B
no binding (tested: 100 nM): all other assays above

B4: Antibody A (Clone A), IgG (antibody, V domains shown)
VH: QVQLVQSGAEVKKPGASVKVSCKASGYTFTGYYMHWVRQAPGQGLEWMGSINPSSGGTNYAQKFQGRVTMTTDTSTSTAYMELRSLRSDDTAVYYCARARDIAAAGLGAFDYWGQGTLVTVSS
VL: EIVLTQSPGTLSLSPGERATLSCRASQSVRSSYLAWYQQKPGQAPRLLIYGASSRATGIPDRFSGSGSGTDFTLTISRLEPEDFAVYYCQQYVSYPRTFGGGTKVEIKR
notes: IgG
no binding (tested: 100 nM): all assays above

B5: Antibody F (Clone F), IgG (antibody, V domains shown)
VH: B4 VH with Y33H, M34I, A40V, S50V, N52S, P53A, S54Y, G57D, F64L, A105L
VL: EIVLTQSPATLSVSPGERATLSCRASQSVSSNLAWYQQKPGQAPRLLIYGASDRATGIPARFSGSGSGTEFTLTISSLQSEDFAVYYCIQYSNYPRTFGGGTKVEIKR
notes: IgG
not listed: human GDF11 | Activin B
no binding (tested: 100 nM): all other assays above

B6: Antibody D (Clone D), IgG (antibody, V domains shown)
VH: B4 VH with T30F, Y33S, S50V, G57D, T72R, T76I, R84S, S85R, A105L
VL: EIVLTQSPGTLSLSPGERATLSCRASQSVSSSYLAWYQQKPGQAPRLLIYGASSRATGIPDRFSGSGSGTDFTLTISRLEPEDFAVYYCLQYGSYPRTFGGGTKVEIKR
notes: IgG
not listed: human GDF11 | Activin B
no binding (tested: 100 nM): all other assays above

B7: Antibody H (Clone H), IgG (antibody, V domains shown)
VH: B4 VH with Y33H, M34I, S50H, N52S, P53A, S54Y, G57T, F64L
VL: B4 VL with V93S, S94N
notes: IgG
not listed: Activin B
no binding (tested: 100 nM): all other assays above

B8: Antibody C (Clone C), IgG (antibody, V domains shown)
VH: B4 VH with T30P, Y33H, S50V, G57D, T72R, T76I, R84S, S85R, A105L
VL: B4 VL with R30S, T57G, S94A
notes: IgG
not listed: human GDF11 | Activin B
no binding (tested: 100 nM): all other assays above

B9: Antibody B (Clone B), IgG (antibody, V domains shown)
VH: B4 VH with T30I, Y33D, S50V, T72R, T76I, R84S, S85R, A105L
VL: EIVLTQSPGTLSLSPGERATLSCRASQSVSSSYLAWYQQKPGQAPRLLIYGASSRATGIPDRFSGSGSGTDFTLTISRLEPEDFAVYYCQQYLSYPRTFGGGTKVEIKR
notes: IgG
not listed: human GDF11 | Activin B
no binding (tested: 100 nM): all other assays above

B10: Antibody E (Clone E), IgG (antibody, V domains shown)
VH: B4 VH with T30H, Y33N, S54Y, G57Y, N59I, T72R, T76I, R84S, S85R
VL: B4 VL
notes: IgG
not listed: human GDF11 | Activin B
no binding (tested: 100 nM): all other assays above

B11: Antibody L (Clone L), IgG (antibody, V domains shown)
VH: QVQLQESGPGLVKPSETLSLTCAVSGYSISSGYYWGWIRQPPGKGLEWIGSIYHSGSTYYNPSLKSRVTISVDTSKNQFSLKLSSVTAADTAVYYCAREAGSGYWYLSVYGMDVWGQGTTVTVSS
VL: B5 VL with D53T, I89Q, Y91S, S92D, N93D, Y94W, R96W
notes: IgG
not listed: Activin B
no binding (tested: 100 nM): all other assays above
